How the values were obtained:
[1] = target: T1, recombinant human Siglec-7 protein (human, UniProt Q9Y286 19-353, limits assumed); experiment: SPR, titration of anti-Siglec-7 on recombinant human Siglec-7 protein (FIG. 16B)
T1 construct: Used in ELISA, Western blot and SPR

[2] = target: T1, recombinant human Siglec-7 protein; experiment: SPR, 'Binding of DB7.2 to Siglec-7' [panel B]
[3] = target: T2, human Siglec-7 on cells (HEK293T-Siglec7 cells; human NK cells and other PBMC populations) (human, UniProt Q9Y286 19-467); experiment: cell-based or functional assay
T2 sequence (Q9Y286 19-467): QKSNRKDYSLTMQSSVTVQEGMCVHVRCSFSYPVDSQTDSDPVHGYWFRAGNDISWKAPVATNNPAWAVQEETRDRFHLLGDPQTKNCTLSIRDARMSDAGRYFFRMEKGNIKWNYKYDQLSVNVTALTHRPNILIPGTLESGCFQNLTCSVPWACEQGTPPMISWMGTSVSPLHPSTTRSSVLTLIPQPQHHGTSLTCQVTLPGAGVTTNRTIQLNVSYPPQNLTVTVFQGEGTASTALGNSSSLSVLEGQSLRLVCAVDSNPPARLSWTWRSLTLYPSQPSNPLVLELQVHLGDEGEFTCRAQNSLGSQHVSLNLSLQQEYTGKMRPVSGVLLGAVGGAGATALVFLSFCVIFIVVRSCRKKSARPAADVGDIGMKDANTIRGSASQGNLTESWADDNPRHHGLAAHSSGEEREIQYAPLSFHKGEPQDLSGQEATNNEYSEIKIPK

[4] = target: T1, recombinant human Siglec-7 protein; experiment: ELISA on recombinant human Siglec-7, dilution series (axis 'Dilutions', no concentration unit) [panel A]
[5] = target: T2, human Siglec-7 on cells …; experiment: flow cytometry on HEK293T-Siglec-7 cells, GFP against Siglec-7 staining [panel B]
From the text: For the non-conjugated primary antibodies, PE-secondary anti-human (H+L) (Invitrogen) and PE/AF647-secondary anti-human F(ab′)₂ (Jackson ImmunoResearch Laboratories Inc) were used. Live/Dead Violet viability kit (Invitrogen) was used to exclude dead cells from analysis. For Fluorescence cytometry staining on PBMCs, the following antibodies were used: CD69 PE-Cy5 (clone FN50), PD-1 BV421 (clone EH12.2H7), CCR7 APC-Cy7 (G043H7), CD19 BV785 (clone HIB19), CD27 BV650 (clone 0323), CD56 BV570 (clone HCD56), CD16 BV711 (clone 3G8), CD21 PE-Cy7 (clone BU32) and Siglec-7 (clone 6-434) from Biolegend; CD11c BUV395 (clone B-ly6), CXCR5 BV750 (clone RF8B2), CD3 BUV805 (UCHT1), CD45 AF700 (clone HI30), CD127 PE-CF594 (clone HIL-7RM21), CD25 BUV737 (clone 2A3), CD8 BUV496 (clone RPA-T8), HLA-DR BV605 (clone G46-6), CD38 BUV661 (clone HIT2), CD14 BV480 (clone MP9), CD45RA BUV563 (HI100), CD4 BB790 (clone SK3), CD15 FITC (clone HI98), CD103 BB700 (clone Ber-ACT8), CD161 APC (clone DX12) from BD Biosciences. […] Cells were washed with PBS and incubated with 0, 1 or 10 ug/ml of DB7.2 Siglec-7 antibody diluted in fluorescence-activated cell sorting (FACS) buffer for 20 minutes. […]

T1 sequence (Q9Y286 19-353 limits assumed): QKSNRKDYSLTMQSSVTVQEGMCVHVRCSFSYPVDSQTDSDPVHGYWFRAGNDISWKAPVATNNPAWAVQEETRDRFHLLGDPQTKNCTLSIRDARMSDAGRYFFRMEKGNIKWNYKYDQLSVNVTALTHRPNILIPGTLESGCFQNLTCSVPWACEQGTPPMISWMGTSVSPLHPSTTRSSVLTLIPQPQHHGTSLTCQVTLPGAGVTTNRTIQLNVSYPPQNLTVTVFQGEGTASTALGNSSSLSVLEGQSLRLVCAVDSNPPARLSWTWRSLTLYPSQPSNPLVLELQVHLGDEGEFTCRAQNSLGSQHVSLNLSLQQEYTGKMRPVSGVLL

B1: DB7.2 (DB-S7-2) Siglec-7 MAb (antibody, human IgG1, V domains shown)
VH: QVQLVESGGGVVQPGRSLRLSCAASGFTFRTDAMHWVRQAPGKGLEWVAVIWYDGSIKYHADSVKGRFTISRDNSKNTLYLEMNSLRAEDTAVYYCARDRSNSLDHWGQGILVSVSS
VL: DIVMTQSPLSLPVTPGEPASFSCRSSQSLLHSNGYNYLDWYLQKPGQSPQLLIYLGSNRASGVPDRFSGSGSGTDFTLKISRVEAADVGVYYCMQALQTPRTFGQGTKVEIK
notes: Expressed as human IgG1; The VH is the same as that of DB-S7-1 and DB-S7-7; also called DB7.2 Siglec-7 DMAb; DB7.2 anti-Siglec-7 antibody
For B1, the Kd [1] was 0.044 nM, the koff [2] was 3.6e-05 s⁻¹ and the kon [2] was 830000 M⁻¹ s⁻¹. The t1/2 [2] was 5.33 h, the “EC50, killing of PEO4 cells in the presence of human PBMCs (xCELLigence)” value [3] was 68.9 nM and the “IC50, killing of OVISE cells in the presence of human PBMCs (xCELLigence, cell index vs dose at 72 h)” value [3] was 82.7 nM.

B2: DB7.2_TM Mod (antibody, human IgG1, V domains shown)
VH: B1 VH
VL: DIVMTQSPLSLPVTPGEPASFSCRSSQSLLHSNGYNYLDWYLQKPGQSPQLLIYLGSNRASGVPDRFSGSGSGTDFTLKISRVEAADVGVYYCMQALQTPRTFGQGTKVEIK
For B2, the “IC50, killing of OVISE cells in the presence of human PBMCs (xCELLigence, cell index vs dose at 72 h)” value [3] was 192 nM.

B3: DB7.1 (DB-S7-1) Siglec-7 MAb (antibody, human IgG1, V domains shown)
VH: B1 VH
VL: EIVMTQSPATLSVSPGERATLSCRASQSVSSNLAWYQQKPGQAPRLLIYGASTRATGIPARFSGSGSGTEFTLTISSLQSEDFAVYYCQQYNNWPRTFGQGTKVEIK
notes: Expressed as human IgG1 (HC + LC plasmids in pVax1, Expi293F cells)
B3: binds [4]; binds [5].

B4: DB7.7 (DB-S7-7) Siglec-7 MAb (antibody, human IgG1, V domains shown)
VH: B1 VH
VL: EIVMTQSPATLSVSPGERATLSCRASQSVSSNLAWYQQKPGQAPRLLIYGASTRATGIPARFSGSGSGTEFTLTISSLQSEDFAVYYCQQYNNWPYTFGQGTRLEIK
notes: Expressed as human IgG1
B4: binds [4]; binds [5].

Reference: US20250236670A1 (WISTAR INSTITUTE OF ANATOMY AND BIOLOGY, published 2025)
